# Experimental data published in publication PMC2988976.
# Target: Rev_(70-Dimer) (HIV) (UniProt P04618)
# Experiment: SEC-MALS
substance,measurement,value
Rev_(70-Dimer) (from UniProt P04618 1-70) (domain or fragment),stoichiometry N,2
